According to paper PMC13631358:

Target: tapasin-ERp57 heterodimer (ER-lumenal domain of tapasin, full-length ERp57 Cys36Ala), disulfide-linked (human) (UniProt P30101)
Experiment: ITC; Crt or Crt^Δacidic (titrant, 500 µM) into tapasin-ERp57 heterodimer (analyte, 19 µM; no PaSta1 Fab named); 25 °C; 50 mM HEPES-NaOH pH 7.4, 150 mM NaCl, 1 mM CaCl2

With “calreticulin (amino acids 18-417) (from UniProt P27797 18-417) (natural protein)” as the substance, how does the Kd read?
Its Kd is 4.2 µM.
